Results on 1 molecule are retold here after patent US20240366722A1 (ACCELERON PHARMA, published 2024).

Assay in all cases: Biacore, steady-state affinity fit
In general terms: In SPR one partner is held on a chip, and binding of the other changes the refractive index at the surface.

One assay addresses T1, activin A (UniProt P08476 311-426).
T1 construct: also called ActA
T1 sequence (looked up): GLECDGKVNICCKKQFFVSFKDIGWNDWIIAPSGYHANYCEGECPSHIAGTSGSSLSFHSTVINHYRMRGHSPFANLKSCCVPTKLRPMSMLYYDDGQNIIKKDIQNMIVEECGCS
The procedure:
(§1) The affinity of ActRIIB variants and other ActRIIB-hFc proteins for several ligands was evaluated in vitro with a Biacore™ instrument. Kd values were obtained by steady-state affinity fit due to the very rapid association and dissociation of the complex, which prevented accurate determination of kₒₙ and koff.

In another assay the target is T2, activin B (UniProt P09529 293-407).
T2 sequence (looked up): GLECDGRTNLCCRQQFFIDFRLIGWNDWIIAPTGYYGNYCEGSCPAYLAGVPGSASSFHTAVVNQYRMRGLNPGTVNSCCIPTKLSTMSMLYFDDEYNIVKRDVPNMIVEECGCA
The procedure:
as §1

In the next assay the target is T3, GDF11 (UniProt O95390 299-407).
T3 sequence (looked up): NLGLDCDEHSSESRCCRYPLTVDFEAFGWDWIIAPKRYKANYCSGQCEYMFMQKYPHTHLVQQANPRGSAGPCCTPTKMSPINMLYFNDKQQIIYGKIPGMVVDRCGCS
On the procedure:
as §1

Usually Kd stands for the concentration at which binding is half-saturated.

B1: ActRIIB(L79D 25-131)-hFc (Fc fusion)
chain: ETRECIYYNANWELERTNQSGLERCEGEQDKRLHCYASWRNSSGTIELVKKGCWDDDFNCYDRQECVATEENPQVYFCCCEGNFCNERFTHLPEAGGPEVTYEPPPTGGGTHTCPPCPAPELLGGPSVFLFPPKPKDTLMISRTPRVTCVVVDVSHEDPEVKFNWYVDGVEVHNAKTKPREEQYNSTYRVVSVLTVLHQDWLNGKEYKCKVSNKALPAPIEKTISKAKGQPREPQVYTLPPSREEMTKNQVSLTCLVKGFYPSDIAVEWESNGQPENNYKTTPPVLDSDGSFFLYSKLTVDKSRWQQGNVFSCSVMHEALHNHYTQKSLSLSPGK
notes: Cell purified form without leader
Consider B1, for which the Kd in the assay with activin A was found to be 22.9 nM; in the assay with activin B it was 0.621 nM; with GDF11, 0.074 nM.
